Measurements taken from US20210371490A1 (MILTENYI BIOTEC B V, published 2021).

Molecular target: T1, TSPAN8 (UniProt P19075 1-237, limits assumed)
T1 sequence (looked up): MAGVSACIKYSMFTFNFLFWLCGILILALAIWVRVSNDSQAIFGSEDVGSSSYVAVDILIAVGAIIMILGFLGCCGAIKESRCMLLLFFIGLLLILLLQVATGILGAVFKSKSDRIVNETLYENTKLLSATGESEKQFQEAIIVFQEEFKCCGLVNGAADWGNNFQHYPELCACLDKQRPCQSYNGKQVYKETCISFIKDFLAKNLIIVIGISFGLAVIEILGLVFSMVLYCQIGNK
Assay: cell-based or functional assay

B1: TSPAN8_hl_Sig4 CAR (other)
chain: EVKLLESGGGLVQPGGSMRLSCAASGFTFTDFYMNWIRQPAGKAPEWLGFIRNKASGYTTEYNPSVKGRFTISRDNTQNMLYLQMNTLRAEDTATYYCARAHSYYGYDYFDYWGQGVMVTVSSGGGGSGGGGSGGGGSDIQMTQSPASLSASLEEIVTITCQASQDIGNWLSWYQQKPGKSPQLLIYGATSLADGVPSRFSGSRSGTQYSLKISRLQVEDIRIYYCLQAYSAPWTFGGGTKLELKAASYPPVIVEMNSSVEAIEGSHVSLLCGADSNPPPLLTWMRDGTVLREAVAESLLLELEEVTPAEDGVYACLAENAYGQDNRTVGLSVMYAPWKPTVNGTMVAVEGETVSILCSTQSNPDPILTIFKEKQILSTVIYESELQLELPAVSPEDDGEYWCVAENQYGQRATAFNLSVEFAPVLLLESHCAAARDTVQCLCVVKSNPEPSVAFELPSRNVTVNESEREFVYSERSGLVLTSILTLRGQAQAPPRVICTARNLYGAKSLELPFQGAHRLMWAKIGPIYIWAPLAGTCGVLLLSLVITLYCKRGRKKLLYIFKQPFMRPVQTTQEEDGCSCRFPEEEEGGCELRVKFSRSADAPAYQQGQNQLYNELNLGRREEYDVLDKRRGRDPEMGGKPRRKNPQEGLYNELQKDKMAEAYSEIGMKGERRRGKGHDGLYQGLSTATKDTYDALHMQALPPR
- cytokine release after 24 h co-culture with AsPC1 cells (MACSPlex), against the TSPAN8 CD8a CAR T cells: 10 fold lower
